In the assay the target is biotinylated NM^K184C seed (Saccharomyces cerevisiae) (UniProt P05453). As to the kind of experiment: capture of biotinylated seed (50% w/w) on Streptavidin-coated Dynabeads, SDS wash, scintillation counting.
Sequence of biotinylated NM^K184C seed (Saccharomyces cerevisiae) (P05453 1-253 K184C): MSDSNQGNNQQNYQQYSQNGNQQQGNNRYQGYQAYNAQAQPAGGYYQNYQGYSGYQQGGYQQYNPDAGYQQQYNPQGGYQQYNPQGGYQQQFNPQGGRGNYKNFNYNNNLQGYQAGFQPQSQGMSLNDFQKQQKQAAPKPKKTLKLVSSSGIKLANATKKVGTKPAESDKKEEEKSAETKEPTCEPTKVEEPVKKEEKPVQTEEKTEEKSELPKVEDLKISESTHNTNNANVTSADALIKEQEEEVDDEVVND

On to “NM^T158C-iodo[1-14C]acetamide (from UniProt P05453 1-253)”, for which the fraction of seed-bound NM soluble in SDS at early time points is 50%.
